{
  "source": "the nanobody polyreactivity screen of Harvey et al. (2022)",
  "data": [
    {"experiment": "yeast display, Sf9 membrane polyspecificity reagent, FACS + sequencing; frameworks hold sequencing errors", "method_in_brief": "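Galactose induction of a Saccharomyces cerevisiae BJ5465 synthetic nanobody display library ran 36–48 hours. The cells were then stained for 1 hour at 4 °C with 10% biotinylated, detergent-solubilized Sf9 membrane reagent, pulled down on streptavidin microbeads and FACS-sorted into low and high (top ~1%) gates on expression and reagent-binding fluorescence. Labels for polyreactivity follow the gate of origin.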", "values": [
      {"sequence": "QVQLVESGGGLVQAGGSLRLSCAASGSIFKYYVMGWYRQAPGKEREFVAVISWSGGTTYYADSVKGRFTISRDNAKNTVYLQMNSLKPEDTAVYDCNKDYIYVGVPRYRSINHDYWGQGTQVTVSS", "polyreactivity (PSR sort gate)": "low polyreactivity"},
      {"sequence": "QVQLVESGGGLVQAGGSLRLSCAASGSIFKYYVMGWYRQAPGKERELVAAITRGGRTYYADSVKGRFTISRDNAKNTVYLQMNSLKPEDTAVYYCARSLQTTSGIIPYDYWGQGTQVTVSS", "polyreactivity (PSR sort gate)": "high polyreactivity"},
      {"sequence": "QVQLVESGGGLVQAGGSLRLSCAASGSIFLDNAMGWYRQAPGKERELVAAISRRGGTTYYADSVKGRFTISRDNAKNTVYLQMNSLKPEDTAVYYCAARYPGGKYYSYTYNYWGQGTQVTVSS", "polyreactivity (PSR sort gate)": "high polyreactivity"},
      {"sequence": "QVQLVESGGGLVQAGGSLRLSCAASGSIFLDYAMGWYRQAPGKERELVAAITSGGSTYYADSVKGRFTISRDNAKNTVYLQMNSLKPEDTAVYYCNDEYPQYKAGFYGYDYWGQGTQVTVSS", "polyreactivity (PSR sort gate)": "low polyreactivity"},
      {"sequence": "QVQLVESGGGLVQAGGSLRLSCAASGSIFLDYAMGWYRQAPGKERELVAGITISGGSTYYADSVKGRFTISRDNAKNTVYLQMNSLKPEDTAVYYCAKVAPRSSSSQEYYYWGQGTQVTVSS", "polyreactivity (PSR sort gate)": "low polyreactivity"},
      {"sequence": "QVQLVESGGGLVQAGGSLRLSCAASGSIFLENTMGWYRQAPGKERELVAAITSSGDSTYADSVKGRFTISRDNAKNTVYLQMNSLKPEDTAVYYCAQYTRDIFAVTFYEGEDYWGQGTQVTVSS", "polyreactivity (PSR sort gate)": "low polyreactivity"},
      {"sequence": "QVQLVESGGGLVQAGGSLRLSCAASGSIFLEYTMGWYRQAPGKERELVASISWGGGSTYYADSVKGRFTISRDNAKNTVFLQMNSLKPEDTAVYYCNKVGGDPVRGGYDYWGQGTQVTVSS", "polyreactivity (PSR sort gate)": "low polyreactivity"},
      {"sequence": "QVQLVESGGGLVQAGGSLRLSCAASGSIFLGNSMGWYRQAPGKERELVAAISSITGRTYYADSVKGRFTISRDNAKNTVYLQMNSLKPEDTAVYYCNKVKRSFIVNTDDYWGQGTQVTVSS", "polyreactivity (PSR sort gate)": "high polyreactivity"},
      {"sequence": "QVQLVESGGGLVQAGGSLRLSCAASGSIFLIYAMGWYRQAPGKERELVAAISSGGSTYYADSVKGRFTISRDNAKNTVYLQINSLKPEDTAVYYCATYSTSVAYHLYYWGQGTQVTVSS", "polyreactivity (PSR sort gate)": "low polyreactivity"},
      {"sequence": "QVQLVESGGGLVQAGGSLRLSCAASGSIFLLYAMGWYRQAPGKERELVARISWSGDNTRYADSVKGRFTISPDNAKNTVYLQMNSLKPEDTAVYYCNAYFFYGQWKGYDYWGQGTQVTVSS", "polyreactivity (PSR sort gate)": "low polyreactivity"},
      {"sequence": "QVQLVESGGGLVQAGGSLRLSCAASGSIFLLYYMGWYRQAPGKERELVAANTWSGGSTYYADSVKGRFTISRDNAKNSVYLQMNSLKPEDTAVYYFAADEPYPTAYEYWGQGTQVTLSS", "polyreactivity (PSR sort gate)": "low polyreactivity"},
      {"sequence": "QVQLVESGGGLVQAGGSLRLSCAASGSIFLPYAMGWSRQAPGTEREFVAAIRWSTGRTFYADSVKGRFTISRDNAKNTVYLQMNSLKPEDTAVYYCAAKYYDSWYTYRYDYWGQGTQVTVSS", "polyreactivity (PSR sort gate)": "high polyreactivity"},
      {"sequence": "QVQLVESGGGLVQAGGSLRLSCAASGSIFLRNAMGWYRQAPGKERELVAAITSNGGRTYYADSVKGRFTISRDNAKNTVYLQMNSLKPEDTAVYYCARVTRLGGGDYDYWGQGTQVTVSS", "polyreactivity (PSR sort gate)": "high polyreactivity"},
      {"sequence": "QVQLVESGGGLVQAGGSLRLSCAASGSIFLRYAMGWYRQAPGKESELVARISWSGGSTYYADSVKGRFTISRDNAKNTVYLQMNSLKPEDTAVYYCAAGFRAYGELDYWGQGTQVTVSS", "polyreactivity (PSR sort gate)": "low polyreactivity"},
      {"sequence": "QVQLVESGGGLVQAGGSLRLSCAASGSIFLSNAMGWSRQAPGKERELVADIDWTGGDTYYADSVKGRFTISRDNAKNTVYLQMNSLKPEDTAVYYCAADYGYRNLLTEYGYWGQGTQVTVSS", "polyreactivity (PSR sort gate)": "low polyreactivity"},
      {"sequence": "QVQLVESGGGLVQAGGSLRLSCAASGSIFLSYAMGWYRQAPGKERELVAAITGSGGSTYYADSVKGRFTISRDNAKNTVYLQMNSLKPEDTAVYYCARRRHHVIWYGYWGQGTQVTVSS", "polyreactivity (PSR sort gate)": "low polyreactivity"},
      {"sequence": "QVQLVESGGGLVQAGGSLRLSCAASGSIFLSYGMGRYRQAPGKERELVATITWSGGSTTYADSVKGRFTISRDNAKNTVYLQMNSLKPEDTAVYYCIALYDVWITLLTYTSSDYWGQGTQVTVSS", "polyreactivity (PSR sort gate)": "low polyreactivity"},
      {"sequence": "QVQLVESGGGLVQAGGSLRLSCAASGSIFLTYAMGWYRKAPGKERELVAAISGGGNTYYADSVKGRFTISRDNAKNTVYLQKNSLKPEDTAVYYCNAVPHIYAEGTAYNYWGQGTQVTVSS", "polyreactivity (PSR sort gate)": "low polyreactivity"},
      {"sequence": "QVQLVESGGGLVQAGGSLRLSCAASGSIFLTYDMGWYRQAPGKERELVAAITGSGDSTYYADSVKGRFTISRDNAKNTVYLQMNSLKPEDNAVYYCNADGPSTPWVDYGYWGQGTQVTVSS", "polyreactivity (PSR sort gate)": "low polyreactivity"},
      {"sequence": "QVQLVESGGGLVQAGGSLRLSCAASGSIFLVNAMGWYRQAPGKERELVAAISWGGGSTYYADSVKGRFTISRDNAKNTVYVQMNSLKPEDTAVYYCAAESYYYIRYFDYSRWMGYWGQGTQVTVSS", "polyreactivity (PSR sort gate)": "low polyreactivity"},
      {"sequence": "QVQLVESGGGLVQAGGSLRLSCAASGSIFLVNAMGWYRQAPGKERELVAIDGSGGSTYADSVKGRFTISRDNAMNTVYLQMNILKPEDTAVYYCAKDQEGPLYDYWGQGTQVTVSS", "polyreactivity (PSR sort gate)": "low polyreactivity"},
      {"sequence": "QVQLVESGGGLVQAGGSLRLSCAASGSIFLVTAMGWYRQAPGKERELVAAITFGGDSTYYADSVKGRFTISRDNAKNTVYLQMNSLKPEDTAVYYCAADPSPYGDEYDYWGQGTQVTVSS", "polyreactivity (PSR sort gate)": "low polyreactivity"},
      {"sequence": "QVQLVESGGGLVQAGGSLRLSCAASGSIFLYARGWYRQAPGKERELVAAINRRGGSTYYADSVKGRFTISRDNAKNTVYLQMNSLKPEDTAVYYCAVVYLLPRYWWRYDYWGQGTQVTVSS", "polyreactivity (PSR sort gate)": "low polyreactivity"},
      {"sequence": "QVQLVESGGGLVQAGGSLRLSCAASGSIFLYKAMGWYRQAPGKERELVADITSRGGSTYYADSVKGRFTISRDNAKNTVYLQMTSLKPEDTAVYDCNAVSRYVYGNGKNYYWGQGTHVTVSS", "polyreactivity (PSR sort gate)": "high polyreactivity"},
      {"sequence": "QVQLVESGGGLVQAGGSLRLSCAASGSIFLYNAMGWYRQAPGKERELVAAIRGSDGITFYADSVKGRFTISRDNAKNTVYLQMNSLKPEDTAVYYCAKDTYRSPRHDYGYWGQGTQVTVSS", "polyreactivity (PSR sort gate)": "low polyreactivity"},
      {"sequence": "QVQLVESGGGLVQAGGSLRLSCAASGSIFLYNAMGWYRQAPGKERELVAAISRSSTSTYYSDSVKGRFTISRDNAKNTVYLQMNSLKPEDTAVYYCAARGRVTYWGQGTQVTVSS", "polyreactivity (PSR sort gate)": "high polyreactivity"},
      {"sequence": "QVQLVESGGGLVQAGGSLRLSCAASGSIFLYYVMGWYRQAPGKERELVAAITWDGGSTYYADSVKGRFTISRDNAKNTVYLQMNSLKPEDTAVYYCNKDTTYSYYTEPYDYWGQGTQVTVSS", "polyreactivity (PSR sort gate)": "low polyreactivity"},
      {"sequence": "QVQLVESGGGLVQAGGSLRLSCAASGSIFNANAMGWYRQAPGKERELVAGIRSGSSTNYADSVKGRFTISRDNAKNTVYFQMNSLKPEDTAVYYCATEGYWVYGFDDEDWGQGTQVTVSS", "polyreactivity (PSR sort gate)": "low polyreactivity"},
      {"sequence": "QVQLVESGGGLVQAGGSLRLSCAASGSIFNGNARGWYRQAPGKERELVAAITRRGGRTYYADSVKGRFTISRDNEKNTVYLQMNSLQPEDTAFYYCATPVDYKTGYYYWVQGTQVTVSS", "polyreactivity (PSR sort gate)": "high polyreactivity"},
      {"sequence": "QVQLVESGGGLVQAGGSLRLSCAASGSIFNGYAMGWYRQSPGKERELVAVISGSGGSTYYADSVKGRFTISRDNAKNTVYLQMNSLKPEDTAVYYCAAKPGYYGYWGQGTQVTVSS", "polyreactivity (PSR sort gate)": "high polyreactivity"},
      {"sequence": "QVQLVESGGGLVQAGGSLRLSCAASGSIFNINAMGWYRQAPGKERELVAAITTSGGRTYYADSVKGRFTISRDNAKNTVYLQMNSLKPEVTAVYYCATSHYGSTGNYWGQGTQVTVSS", "polyreactivity (PSR sort gate)": "low polyreactivity"},
      {"sequence": "QVQLVESGGGLVQAGGSLRLSCAASGSIFNINAMGWYRQAPGKESELVATITSGGTTSYADSVKGRFTISRDNAKNTVYLQMNSLKPEDTAVYYCNAEIYPIVKAGLQHPRRYDYWGQGTQVTVSS", "polyreactivity (PSR sort gate)": "low polyreactivity"},
      {"sequence": "QVQLVESGGGLVQAGGSLRLSCAASGSIFNIYAMGLYRQAPGKERELVATITGIADSTYYADSVKGRFTISRDNAKNTVYLQMNSLKPEDTAVYYCAADKYVAEYDYWGQGTQVTVSS", "polyreactivity (PSR sort gate)": "low polyreactivity"},
      {"sequence": "QVQLVESGGGLVQAGGSLRLSCAASGSIFNIYAMGWYRQAPGKERELVAAIRWTGGSTYYADSVKGRFTISRDNAKNTVYLQMHSLKPEDTALYYSAARTSRGGHYYWGHGTQVTVSS", "polyreactivity (PSR sort gate)": "high polyreactivity"},
      {"sequence": "QVQLVESGGGLVQAGGSLRLSCAASGSIFNLYAMGWYRQAPGKERELVAGIRWSGGRTYYADSVKGRFTISRDNAKNTVYLQMNSLKPEDTAVYYCNAVGYLSWWNDYDYWGQGTQVTVSS", "polyreactivity (PSR sort gate)": "high polyreactivity"},
      {"sequence": "QVQLVESGGGLVQAGGSLRLSCAASGSIFNPYVMGWYRQAPGKERELVAAISSSGGRTYYADSVKGRFTISRDNAKNTVYLQMNSLKPEDTAVYYCAAIPRQGYDYWGQGTQVTVSS", "polyreactivity (PSR sort gate)": "high polyreactivity"},
      {"sequence": "QVQLVESGGGLVQAGGSLRLSCAASGSIFNRYAMGWYRQAPGKERELVAAITWNGGSTYYADSVKGRFTISRDNAKNTVYLQMNSLKPEDTAVYYCNKASLRGSYARYSYDYWGQGTQVTVSS", "polyreactivity (PSR sort gate)": "high polyreactivity"},
      {"sequence": "QVQLVESGGGLVQAGGSLRLSCAASGSIFNTYAMGWYRQAPGKERELVAAISRSGDSTYYADSVKGRFTISRDNAKNTVYLQMNSLKPEDSAVYYCATGRTDHGYYYWGQGTQVTVSS", "polyreactivity (PSR sort gate)": "high polyreactivity"},
      {"sequence": "QVQLVESGGGLVQAGGSLRLSCAASGSIFNWNTMGWYRQAPGKERELVAAITYDGGTTYYADSVKGRFTISRDNAKNTVYLQMNSLKPEDTAVYYCAAEFLYKYGRYDYWGQGTQVTVSS", "polyreactivity (PSR sort gate)": "high polyreactivity"},
      {"sequence": "QVQLVESGGGLVQAGGSLRLSCAASGSIFNWNTMGWYRQAPGKERELVAAITYDGGTTYYADSVKGRFTISRDYAKNNVYLQMISLKPEDTAVYYCAAEFLYKYGRYDYWGQGTQVTVSS", "polyreactivity (PSR sort gate)": "high polyreactivity"},
      {"sequence": "QVQLVESGGGLVQAGGSLRLSCAASGSIFNYNDMGWYRQAPGKERELVAAIDSSGTSTYYADSVKGRFTISRDNAKNTVYLQMNSLKPEDTAVYYCNADSSLGFGYWGQGTLVTVSS", "polyreactivity (PSR sort gate)": "low polyreactivity"},
      {"sequence": "QVQLVESGGGLVQAGGSLRLSCAASGSIFNYNDMGWYRQAPGKERELVAAIDSSGTSTYYADSVKGRFTISRDNAKNTVYLQMTSLKPEDTAVYYCNADYRGWGYHMDYWGQGTQVTVSS", "polyreactivity (PSR sort gate)": "low polyreactivity"},
      {"sequence": "QVQLVESGGGLVQAGGSLRLSCAASGSIFNYNTMGWYRQAPGKERELVADISWSGGSTYYADSVKGRFTISRDNAKNTVYLQMNSLKPEDTAVYYCAADFGLFPYVGTGYYYWGQGTQVTVSS", "polyreactivity (PSR sort gate)": "low polyreactivity"}
    ]}
  ]
}
